Data reported in the supplement of paper PMC5998384.

What was measured:
HeLa Kyoto [1] = assay: solubility in G1/S (NP-40 vs SDS abundance) (log2 ratio); higher = more soluble; details: cell cycle stage: G1/S
HeLa Kyoto [2] = assay: melting temperature (median over replicates), in situ; higher = more thermally stable
HeLa Kyoto [3] = assay: solubility change mitosis vs G1/S (difference of NP-40 vs SDS log2 ratios) (log2 ratio difference); higher = more soluble in mitosis
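For melting temperature (median over replicates), in situ in this document: HeLa Kyoto cells synchronized by double thymidine or nocodazole block, proteins quantified by TMT10plex mass spectrometry, three independent biological replicates.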
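For solubility change mitosis vs G1/S (difference of NP-40 vs SDS log2 ratios) in this document: synchronized HeLa Kyoto cells (double thymidine block for G1/S, nocodazole release for mitosis), protein amounts in NP-40 versus SDS lysates quantified by mass spectrometry, three biological replicates.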
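For solubility in G1/S (NP-40 vs SDS abundance) in this document: HeLa Kyoto cells arrested at G1/S by double thymidine block, proteins quantified by TMT10plex mass spectrometry in mild NP-40 versus SDS extracts, three biological replicates.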

| Substance | solubility in G1/S (log2) (HeLa Kyoto [1]) | melting temperature (HeLa Kyoto [2]; cell cycle stage: G1/S) [°C] | melting temperature (HeLa Kyoto [2]; cell cycle stage: mitosis) [°C] | solubility change mitosis (log2) (HeLa Kyoto [3]) |
| --- | --- | --- | --- | --- |
| MTTKDYPSLWGFGTTKTFKIPIEHLDFKYIEKCSDVKHLEKILCVLRSGEEGYYPELTEFCEKHLQALAPESRALRKDKPAATAASFTAEEWEKIDGDIKSWVSEIKKEEDKMHFHETETFPAMKDNLPPVRGSNSCLHVGKEKYSKRPTKKKTPRDYAEWDKFDVEKECLKIDEDYKEKTVIDKSHLSKIETRIDTAGLTEKEKDFLATREKEKGNEAFNSGDYEEAVMYYTRSISALPTVVAYNNRAQAEIKLQNWNSAFQDCEKVLELEPGNVKALLRRATTYKHQNKLREATEDLSKVLDVEPDNDLAKKTLSEVERDLKNSEAASETQTKGKRMVIQEIENSEDEEGKSGRKHEDGGGDKKPAEPAGAARAAQPCVMGNIQKKLTGKAEGGKRPARGAPQRGQTPEAGADKRSPRRASAAAAAGGGATGHPGGGQGAENPAGLKSQGNELFRSGQFAEAAGKYSAAIALLEPAGSEIADDLSILYSNRAACYLKEGNCSGCIQDCNRALELHPFSMKPLLRRAMAYETLEQYGKAYVDYKTVLQIDCGLQLANDSVNRLSRILMELDGPNWREKLSPIPAVPASVPLQAWHPAKEMISKQAGDSSSHRQQGITDEKTFKALKEEGNQCVNDKNYKDALSKYSECLKINNKECAIYTNRALCYLKLCQFEEAKQDCDQALQLADGNVKAFYRRALAHKGLKNYQKSLIDLNKVILLDPSIIEAKMELEEVTRLLNLKDKTAPFNKEKERRKIEIQEVNEGKEEPGRPAGEVSMGCLASEKGGKSSRSPEDPEKLPIAKPNNAYEFGQIINALSTRKDKEACAHLLAITAPKDLPMFLSNKLEGDTFLLLIQSLKNNLIEKDPSLVYQHLLYLSKAERFKMMLTLISKGQKELIEQLFEDLSDTPNNHFTLEDIQALKRQYEL [SPAG1] | 0.51 | 49.2 | 48.5 | -0.0757 |
| MAFWCQRDSYAREFTTTVVSCCPAELQTEGSNGKKEVLSGFQVVLEDTVLFPEGGGQPDDRGTINDISVLRVTRRGEQADHFTQTPLDPGSQVLVRVDWERRFDHMQQHSGQHLITAVADHLFKLKTTSWELGRFRSAIELDTPSMTAEQVAAIEQSVNEKIRDRLPVNVRELSLDDPEVEQVSGRGLPDDHAGPIRVVNIEGVDSNMCCGTHVSNLSDLQVIKILGTEKGKKNRTNLIFLSGNRVLKWMERSHGTEKALTALLKCGAEDHVEAVKKLQNSTKILQKNNLNLLRDLAVHIAHSLRNSPDWGGVVILHRKEGDSEFMNIIANEIGSEETLLFLTVGDEKGGGLFLLAGPPASVETLGPRVAEVLEGKGAGKKGRFQGKATKMSRRMEAQALLQDYISTQSAKE [AARSD1] | 0.18 | 49.8 | 49.9 | -0.0164 |
| MAICQFFLQGRCRFGDRCWNEHPGARGAGGGRQQPQQQPSGNNRRGWNTTSQRYSNVIQPSSFSKSTPWGGSRDQEKPYFSSFDSGASTNRKEGFGLSENPFASLSPDEQKDEKKLLEGIVKDMEVWESSGQWMFSVYSPVKKKPNISGFTDISPEELRLEYHNFLTSNNLQSYLNSVQRLINQWRNRVNELKSLNISTKVALLSDVKDGVNQAAPAFGFGSSQAATFMSPGFPVNNSSSDNAQNFSFKTNSGFAAASSGSPAGFGSSPAFGAAASTSSGISTSAPAFGFGKPEVTSAASFSFKSPAASSFGSPGFSGLPASLATGPVRAPVAPAFGGGSSVAGFGSPGSHSHTAFSKPSSDTFGNSSISTSLSASSSIIATDNVLFTPRDKLTVEELEQFQSKKFTLGKIPLKPPPLELLNV [NUPL2] | -0.304 | – | 51.7 | 0.326 |
| MGRKVTVATCALNQWALDFEGNLQRILKSIEIAKNRGARYRLGPELEICGYGCWDHYYESDTLLHSFQVLAALVESPVTQDIICDVGMPVMHRNVRYNCRVIFLNRKILLIRPKMALANEGNYRELRWFTPWSRSRHTEEYFLPRMIQDLTKQETVPFGDAVLVTWDTCIGSEICEELWTPHSPHIDMGLDGVEIITNASGSHQVLRKANTRVDLVTMVTSKNGGIYLLANQKGCDGDRLYYDGCAMIAMNGSVFAQGSQFSLDDVEVLTATLDLEDVRSYRAEISSRNLAASRASPYPRVKVDFALSCHEDLLAPISEPIEWKYHSPEEEISLGPACWLWDFLRRSQQAGFLLPLSGGVDSAATACLIYSMCCQVCEAVRSGNEEVLADVRTIVNQISYTPQDPRDLCGRILTTCYMASKNSSQETCTRARELAQQIGSHHISLNIDPAVKAVMGIFSLVTGKSPLFAAHGGSSRENLALQNVQARIRMVLAYLFAQLSLWSRGVHGGLLVLGSANVDESLLGYLTKYDCSSADINPIGGISKTDLRAFVQFCIQRFQLPALQSILLAPATAELEPLADGQVSQTDEEDMGMTYAELSVYGKLRKVAKMGPYSMFCKLLGMWRHICTPRQVADKVKRFFSKYSMNRHKMTTLTPAYHAENYSPEDNRFDLRPFLYNTSWPWQFRCIENQVLQLERAEPQSLDGVD [NADSYN1] | 0.157 | – | 56.3 | -0.234 |
| MAAAAPNAGGSAPETAGSAEAPLQYSLLLQYLVGDKRQPRLLEPGSLGGIPSPAKSEEQKMIEKAMESCAFKAALACVGGFVLGGAFGVFTAGIDTNVGFDPKDPYRTPTAKEVLKDMGQRGMSYAKNFAIVGAMFSCTECLIESYRGTSDWKNSVISGCITGGAIGFRAGLKAGAIGCGGFAAFSAAIDYYLR [TIMM22] | 0.0827 | 56 | 56.3 | -0.0464 |
| MRKIDLCLSSEGSEVILATSSDEKHPPENIIDGNPETFWTTTGMFPQEFIICFHKHVRIERLVIQSYFVQTLKIEKSTSKEPVDFEQWIEKDLVHTEGQLQNEEIVAHDGSATYLRFIIVSAFDHFASVHSVSAEGTVVSNLSS [HSPB11] | 0.137 | 53.3 | 55.1 | -0.328 |
| MPVTHRKSDASDMNSDTSPSCRLRAFSRGGSLESRSSSSRSRSFTLDDESLKYLTHEEKDVLLFFEETIDSLDEDFEEPVLCDGGVCCLCSPSLEESTSSPSEPEDVIDLVQPAPGAGEAEGLPEGTQAAGPAPAGKEHRKQDAETPPPPDPPAPETLLAPPPLPSTPDPPRRELRAPSPPVEHPRLLRSVPTPLVMAQKISERMAGNEALSPTSPFREGRPGEWRTPAARGPRSGDPGPGPSHPAQPKAPRFPSNIIVTNGAAREPRRTLSRAAVSVQERRAQVLATIHGHAGAFPAAGDAGEGAPGGGSSPERVARGRGLPGPAESLRAGGQAPRGPALANGFPSAHEALKSAPSSFAPAGKSLCFRPGPALPSTRARQSFPGPRQPNGAQDWRRADSLPRPQGITVQFAGRGSSEEARREALRKLGLLRESS [PROSER2] | 0.405 | 48.6 | 51.3 | -0.0862 |
| MFPLTEENKHVAQLLLNTGTCPRCIFRFCGVDFHAPYKLPYKELLNELQKFLETEKDELILEVMNPPPKKIRLQELEDSIDNLSQNGEGRISVSHVGSTASKNSNLNVCNVCLGILQEFCEKDFIKKVCQKVEASGFEFTSLVFSVSFPPQLSVREHAAWLLVKQEMGKQSLSLGRDDIVQLKEAYKWITHPLFSEELGVPIDGKSLFEVSVVFAHPETVEDCHFLAAICPDCFKPAKNKQSVFTRMAVMKALNKIKEEDFLKQFPCPPNSPKAVCAVLEIECAHGAVFVAGRYNKYSRNLPQTPWIIDGERKLESSVEELISDHLLAVFKAESFNFSSSGREDVDVRTLGNGRPFAIELVNPHRVHFTSQEIKELQQKINNSSNKIQVRDLQLVTREAIGHMKEGEEEKTKTYSALIWTNKAIQKKDIEFLNDIKDLKIDQKTPLRVLHRRPLAVRARVIHFMETQYVDEHHFRLHLKTQAGTYIKEFVHGDFGRTKPNIGSLMNVTADILELDVESVDVDWPPALDD [PUS10] | 0.0782 | 50.8 | 51.8 | -0.271 |
| MSGAGEALAPGPVGPQRVAEAGGGQLGSTAQGKCDKDNTEKDITQATNSHFTHGEMQDQSIWGNPSDGELIRTQPQRLPQLQTSAQVPSGEEIGKIKNGHTGLSNGNGIHHGAKHGSADNRKLSAPVSQKMHRKIQSSLSVNSDISKKSKVNAVFSQKTGSSPEDCCVHCILACLFCEFLTLCNIVLGQASCGICTSEACCCCCGDEMGDDCNCPCDMDCGIMDACCESSDCLEICMECCGICFPS [MDFIC] | -0.698 | 57.2 | 55.7 | 0.671 |
| MSLQSRLSGRLAQLRAAGQLLVPPRPRPGHLAGATRTRSSTCGPPAFLGVFGRRARTSAGVGAWGAAAVGRTAGVRTWAPLAMAAKVDLSTSTDWKEAKSFLKGLSDKQREEHYFCKDFVRLKKIPTWKEMAKGVAVKVEEPRYKKDKQLNEKISLLRSDITKLEVDAIVNAANSSLLGGGGVDGCIHRAAGPLLTDECRTLQSCKTGKAKITGGYRLPAKYVIHTVGPIAYGEPSASQAAELRSCYLSSLDLLLEHRLRSVAFPCISTGVFGYPCEAAAEIVLATLREWLEQHKDKVDRLIICVFLEKDEDIYRSRLPHYFPVA [MACROD1] | 0.246 | 50.6 | 51.1 | -0.147 |
| PTPRS | 0.148 | 51.6 | – | -0.268 |
| MRPLLGLLLVFAGCTFALYLLSTRLPRGRRLGSTEEAGGRSLWFPSDLAELRELSEVLREYRKEHQAYVFLLFCGAYLYKQGFAIPGSSFLNVLAGALFGPWLGLLLCCVLTSVGATCCYLLSSIFGKQLVVSYFPDKVALLQRKVEENRNSLFFFLLFLRLFPMTPNWFLNLSAPILNIPIVQFFFSVLIGLIPYNFICVQTGSILSTLTSLDALFSWDTVFKLLAIAMVALIPGTLIKKFSQKHLQLNETSTANHIHSRKDT [TMEM41A] | 0.0255 | 55.1 | 55.5 | -0.205 |
| MAERGRKRPCGPGEHGQRIEWRKWKQQKKEEKKKWKDLKLMKKLERQRAQEEQAKRLEEEEAAAEKEDRGRPYTLSVALPGSILDNAQSPELRTYLAGQIARACAIFCVDEIVVFDEEGQDAKTVEGEFTGVGKKGQACVQLARILQYLECPQYLRKAFFPKHQDLQFAGLLNPLDSPHHMRQDEESEFREGIVVDRPTRPGHGSFVNCGMKKEVKIDKNLEPGLRVTVRLNQQQHPDCKTYHGKVVSSQDPRTKAGLYWGYTVRLASCLSAVFAEAPFQDGYDLTIGTSERGSDVASAQLPNFRHALVVFGGLQGLEAGADADPNLEVAEPSVLFDLYVNTCPGQGSRTIRTEEAILISLAALQPGLIQAGARHT [C9ORF114] | -1.68 | – | 51.8 | 0.696 |
| MAVSGFTLGTCILLLHISYVANYPNGKVTQSCHGMIPEHGHSPQSVPVHDIYVSQMTFRPGDQIEVTLSGHPFKGFLLEARNAEDLNGPPIGSFTLIDSEVSQLLTCEDIQGSAVSHRSASKKTEIKVYWNAPSSAPNHTQFLVTVVEKYKIYWVKIPGPIISQPNAFPFTTPKATVVPLPTLPPVSHLTKPFSASDCGNKKFCIRSPLNCDPEKEASCVFLSFTRDDQSVMVEMSGPSKGYLSFALSHDQWMGDDDAYLCIHEDQTVYIQPSHLTGRSHPVMDSRDTLEDMAWRLADGVMQCSFRRNITLPGVKNRFDLNTSYYIFLADGAANDGRIYKHSQQPLITYEKYDVTDSPKNIGGSHSVLLLKVHGALMFVAWMTTVSIGVLVARFFKPVWSKAFLLGEAAWFQVHRMLMFTTTVLTCIAFVMPFIYRGGWSRHAGYHPYLGCIVMTLAVLQPLLAVFRPPLHDPRRQMFNWTHWSMGTAARIIAVAAMFLGMDLPGLNLPDSWKTYAMTGFVAWHVGTEVVLEVHAYRLSRKVEILDDDRIQILQSFTAVETEGHAFKKAVLAIYVCGNVTFLIIFLSAINHL [FRRS1] | 0.0918 | 58.8 | – | 0.186 |
